Test results reported in patent publication US20080058263A1 (published 2008).

T1: VEGFR-3-Fc (UniProt P35916 25-328)
T1 construct: domain: first three Ig domains; conditioned supernatant of 293T cells; also called VEGFR-3-Fc fusion protein; not shown: Fc fragment of the pIg vector
T1 sequence (looked up): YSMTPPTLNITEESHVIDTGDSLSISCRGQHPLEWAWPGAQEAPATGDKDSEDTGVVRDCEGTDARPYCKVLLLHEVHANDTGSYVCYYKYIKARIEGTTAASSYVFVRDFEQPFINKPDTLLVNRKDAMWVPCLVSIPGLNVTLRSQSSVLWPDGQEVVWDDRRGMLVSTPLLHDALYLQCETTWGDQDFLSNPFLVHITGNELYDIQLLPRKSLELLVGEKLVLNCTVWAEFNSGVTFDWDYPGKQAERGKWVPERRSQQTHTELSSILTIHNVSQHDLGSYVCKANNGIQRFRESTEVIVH


Legend:
Assay in all cases: receptor-Fc IP
[1] = target: T2, VEGFR-2-Fc (UniProt P35968 20-322)
T2 construct: domain: first 3 Ig domains; conditioned supernatant of 293T cells; also called VEGFR-2-Fc fusion protein; not shown: Fc fragment of the pIg vector
In short: (§1)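 Binding of ligand from sample supernatant measured by pentahistidine-antibody immunoprecipitation. IP mix: PBS with 1.5% BSA, 0.06% Tween 20, 3 μg/ml heparin and 400 ng/ml fusion protein, added 1:2 to sample supernatant.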

[2] = target: T3, VEGFR-1-Fc (UniProt P17948 27-338)
T3 construct: domain: first three Ig domains; expressed in Drosophila S2 cells, purified on Protein A sepharose; also called VEGFR-1-Fc fusion protein; not shown: Fc fragment from the Signal-pIgPlus vector
In short: as §1

[3] = target: T1, VEGFR-3-Fc
In short: as §1

T2 sequence (P35968 20-322): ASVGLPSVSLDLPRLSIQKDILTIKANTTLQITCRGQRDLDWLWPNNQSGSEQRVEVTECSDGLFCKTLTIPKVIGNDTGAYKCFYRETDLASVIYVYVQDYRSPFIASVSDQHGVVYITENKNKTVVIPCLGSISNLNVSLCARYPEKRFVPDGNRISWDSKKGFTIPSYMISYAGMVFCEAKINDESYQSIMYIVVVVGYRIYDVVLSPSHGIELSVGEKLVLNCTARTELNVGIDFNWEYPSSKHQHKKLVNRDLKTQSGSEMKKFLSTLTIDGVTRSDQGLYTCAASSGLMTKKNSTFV
T3 sequence (P17948 27-338): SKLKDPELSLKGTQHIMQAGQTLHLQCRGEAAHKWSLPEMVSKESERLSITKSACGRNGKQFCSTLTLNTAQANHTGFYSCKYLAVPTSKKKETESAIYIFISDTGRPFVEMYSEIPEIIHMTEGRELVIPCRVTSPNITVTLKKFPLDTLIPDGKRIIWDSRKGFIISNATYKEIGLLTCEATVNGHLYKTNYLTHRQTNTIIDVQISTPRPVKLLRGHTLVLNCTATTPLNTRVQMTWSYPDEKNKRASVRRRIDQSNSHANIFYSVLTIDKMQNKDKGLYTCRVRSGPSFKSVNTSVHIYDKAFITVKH

Row | Binder | binding result [1] | binding result [2] | binding result [3]
1 | 32-1 (ligand) GQNHHEVVKSIDNEWRKTQCMPIETLVDIFQEFGVATNTFFKPPCVSVYRCGGCCNDEGLECVPTEESNITMQIMRIKPHQGQHIGEMSFLQHNKCECRPKKD | no binding | no binding | no binding
2 | 32-3 (ligand) GQNHHEVVKSIDNEWRKTQCMPIETLVDIFQEFGVATNTFFKPPCVSVYRCGGCCNSEGLQCVPTEESNITMQIMRIKPHQGQHIGEMSFLQHNKCECRPKKD | no binding | no binding | no binding
3 | 32-7 (ligand) GQNHHEVVKSIDNEWRKTQCMPIETLVDIFQEFGVATNTFFKPPCVSVYRCGGCCNSEGLQCVPTEESNITMQIMRIKPHQGQHIGEMSFANHTSCRCMSKLD | no binding | no binding | no binding
4 | 32-5 (ligand) GQNHHEVVKSIDNEWRKTQCMPIETLVDIFQEFGVATNTFFKPPCVSVYRCGGCCNDEGLECVPTEESNITMQIMRIKPHQGQHIGEMSFANHTSCRCMSKLD | no binding | no binding | no binding
5 | 24-4 (ligand) AHYNTEILKSIDNEWRKTQCMPREVCIDVGKEFGVATNTFFKPSCVPLMRCGGCCNSEGLQCMNTSTSYLSKTLFEIKPHQGQHIGEMSFLQHNKCECRPKKD | no binding | no binding | no binding
6 | 24-8 (ligand) AHYNTEILKSIDNEWRKTQCMPREVCIDVGKEFGVATNTFFKPSCVPLMRCGGCCNSEGLQCMNTSTSYLSKTLFEIKPHQGQHIGEMSFANHTSCRCMSKLD | no binding | no binding | no binding
7 | 51-9 (ligand) AHYNTEILKSIDNEWRKTQCMPIETLVDIFQEYPDEIEYIFKPSCVPLMRCGGCCNDEGLECVPTEESNITMQIMRITVPLSQGPKPVTISFLQHNKCECRPKKD | no binding | no binding | no binding
8 | 51-11 (ligand) AHYNTEILKSIDNEWRKTQCMPIETLVDIFQEYPDEIEYIFKPSCVPLMRCGGCCNSEGLQCVPTEESNITMQIMRITVPLSQGPKPVTISFLQHNKCECRPKKD | no binding | no binding | no binding
9 | 32-13 (ligand) GQNHHEVVKSIDNEWRKTQCMPIETLVDIFQEFGVATNTFFKPPCVSVYRCGGCCNDEGLECVPTEESNITMQIMRITVPLSQGPKPVTISFANHTSCRCMSKLD | no binding | no binding | no binding
10 | 24-12 (ligand) AHYNTEILKSIDNEWRKTQCMPREVCIDVGKEFGVATNTFFKPSCVPLMRCGGCCNSEGLQCMNTSTSYLSKTLFEITVPLSQGPKPVTISFLQHNKCECRPKKD | no binding | no binding | no binding
11 | 21-12 (ligand) AHYNTEILKSIDNEWRKTQCMPREVCIDVGKEYPDEIEYIFKPSCVPLMRCGGCCNSEGLQCMNTSTSYLSKTLFEITVPLSQGPKPVTISFLQHNKCECRPKKD | no binding | no binding | no binding
12 | 51-1 (ligand) AHYNTEILKSIDNEWRKTQCMPIETLVDIFQEYPDEIEYIFKPSCVPLMRCGGCCNDEGLECVPTEESNITMQIMRIKPHQGQHIGEMSFLQHNKCECRPKKD | no binding | no binding | no binding
13 | 51-5 (ligand) AHYNTEILKSIDNEWRKTQCMPIETLVDIFQEYPDEIEYIFKPSCVPLMRCGGCCNDEGLECVPTEESNITMQIMRIKPHQGQHIGEMSFANHTSCRCMSKLD | no binding | no binding | no binding
14 | 51-7 (ligand) AHYNTEILKSIDNEWRKTQCMPIETLVDIFQEYPDEIEYIFKPSCVPLMRCGGCCNSEGLQCVPTEESNITMQIMRIKPHQGQHIGEMSFANHTSCRCMSKLD | no binding | no binding | no binding

The next lines start with the values.

Row | binding result [1] | binding result [2] | binding result [3] | Binder
15 | no binding | no binding | no binding | 51-3 (ligand) AHYNTEILKSIDNEWRKTQCMPIETLVDIFQEYPDEIEYIFKPSCVPLMRCGGCCNSEGLQCVPTEESNITMQIMRIKPHQGQHIGEMSFLQHNKCECRPKKD
16 | no binding | no binding | no binding | 24-11 (ligand) AHYNTEILKSIDNEWRKTQCMPREVCIDVGKEFGVATNTFFKPSCVPLMRCGGCCNSEGLQCVPTEESNITMQIMRITVPLSQGPKPVTISFLQHNKCECRPKKD
17 | no binding | no binding | no binding | 24-15 (ligand) AHYNTEILKSIDNEWRKTQCMPREVCIDVGKEFGVATNTFFKPSCVPLMRCGGCCNSEGLQCVPTEESNITMQIMRITVPLSQGPKPVTISFANHTSCRCMSKLD
18 | no binding | no binding | no binding | 24-13 (ligand) AHYNTEILKSIDNEWRKTQCMPREVCIDVGKEFGVATNTFFKPSCVPLMRCGGCCNDEGLECVPTEESNITMQIMRITVPLSQGPKPVTISFANHTSCRCMSKLD
19 | no binding | no binding | no binding | 51-2 (ligand) AHYNTEILKSIDNEWRKTQCMPIETLVDIFQEYPDEIEYIFKPSCVPLMRCGGCCNDEGLECMNTSTSYLSKTLFEIKPHQGQHIGEMSFLQHNKCECRPKKD
20 | no binding | no binding | no binding | 51-8 (ligand) AHYNTEILKSIDNEWRKTQCMPIETLVDIFQEYPDEIEYIFKPSCVPLMRCGGCCNSEGLQCMNTSTSYLSKTLFEIKPHQGQHIGEMSFANHTSCRCMSKLD
21 | no binding | no binding | no binding | 51-4 (ligand) AHYNTEILKSIDNEWRKTQCMPIETLVDIFQEYPDEIEYIFKPSCVPLMRCGGCCNSEGLQCMNTSTSYLSKTLFEIKPHQGQHIGEMSFLQHNKCECRPKKD
22 | no binding | no binding | no binding | 21-13 (ligand) AHYNTEILKSIDNEWRKTQCMPREVCIDVGKEYPDEIEYIFKPSCVPLMRCGGCCNDEGLECVPTEESNITMQIMRITVPLSQGPKPVTISFANHTSCRCMSKLD
23 | no binding | no binding | no binding | 51-13 (ligand) AHYNTEILKSIDNEWRKTQCMPIETLVDIFQEYPDEIEYIFKPSCVPLMRCGGCCNDEGLECVPTEESNITMQIMRITVPLSQGPKPVTISFANHTSCRCMSKLD
24 | no binding | no binding | no binding | 32-6 (ligand) GQNHHEVVKSIDNEWRKTQCMPIETLVDIFQEFGVATNTFFKPPCVSVYRCGGCCNDEGLECMNTSTSYLSKTLFEIKPHQGQHIGEMSFANHTSCRCMSKLD
25 | no binding | no binding | no binding | 32-8 (ligand) GQNHHEVVKSIDNEWRKTQCMPIETLVDIFQEFGVATNTFFKPPCVSVYRCGGCCNSEGLQCMNTSTSYLSKTLFEIKPHQGQHIGEMSFANHTSCRCMSKLD
